Molecular target: CD99 antigen (Origene, Sku #TP304058) (UniProt P14209)
Assay: ELISA on coated CD99 antigen

Sequence of CD99 antigen (Origene, Sku #TP304058) (P14209 23-185 limits assumed): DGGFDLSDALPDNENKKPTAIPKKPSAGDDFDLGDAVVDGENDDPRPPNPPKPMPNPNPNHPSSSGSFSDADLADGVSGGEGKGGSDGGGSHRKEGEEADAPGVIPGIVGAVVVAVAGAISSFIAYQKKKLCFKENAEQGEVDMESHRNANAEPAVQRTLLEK

ELISA absorbance: 0.658
B1: 1H3H9 (antibody, V domains shown)
VH: EVQLQQSGAELVKPGASVKLSCTASGFDIKDTYIHWVKQRPEQGLEWIGRIDPANGDTRYDPEFQGKASLTADTSSNTAYLQFSNLTSEDTAVYYCARRGGLSWGQGTTLTVSS
VL: DIQMTQSPASLSASVGETVTITCRASGNIHNYLAWYQQKQGKSPQLLVYNAKTLADGVPSRFSGSGSGTQYSLKINSLQPEDFGSYYCQHFWSTPWTFGGGTKLEIK

From patent publication US20230257477A1
